Test results as given in the supplement of paper PMC10567573.
± gives the standard deviation.

Assay: protein stability index of a GFP-peptide fusion (GPS, HEK-293T) (PSI 1-6); higher = more stable
[1] = treatment: DMSO, c terminus: a fixed tail appended
[2] = treatment: MLN4924 1 uM, 8 h, c terminus: a fixed tail appended
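Note: 24-mer peptide tiles fused after GFP, lentivirally expressed, FACS-sorted into six equal bins by GFP/DsRed ratio, decoded by Illumina sequencing, PSI is the read-weighted mean bin number.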

LSPVLESPRDLQFSEIRETSAKVN [TNXB]
protein stability index [1]: 4.9 ± 0.12
protein stability index [2]: 5.02 ± 0.34

LSQLSSHDPLWRRHCKKYWLISEE [FBXO3]
protein stability index [1]: 2.54 ± 0.069
protein stability index [2]: 2.67 ± 0.4

LSRTNEELLWKLQTGDPTSPIKLS [MTUS2]
protein stability index [1]: 3.49 ± 0.12
protein stability index [2]: 3.35 ± 0.25

LSTNDKTIKLWKITERDKRPEGYN [PPP2R2C]
protein stability index [1]: 3.6 ± 0.28
protein stability index [2]: 3.79 ± 0.61

LSWLVWLLLLLLASLLPSARLASP [ADAMTS4]
protein stability index [1]: 2.99 ± 0.65
protein stability index [2]: 2.5 ± 0.3

LTGVLCSYPNPNEDKCPGNYTNPL [TMEM192]
protein stability index [1]: 3.26 ± 0.19
protein stability index [2]: 3.36 ± 0.25

LTRAGMSYYNSPGLHVQHMGTSHG [CCDC6]
protein stability index [1]: 2.67 ± 0.2
protein stability index [2]: 2.81 ± 0.12

LVPKTHLMSESEWRNLGVQQSQGW [CKS1B]
protein stability index [1]: 2.64 ± 0.32
protein stability index [2]: 2.86 ± 0.2

LVSVYPDKYCPLLIKEGGMPLLRD [ZER1]
protein stability index [1]: 2.38 ± 0.23
protein stability index [2]: 2.42 ± 0.29

LYKALGAQDLTEAEGWHFFCFQGE [SAT2]
protein stability index [1]: 2.5 ± 0.27
protein stability index [2]: 2.29 ± 0.43

MAAAAEERMAEEGGGGQGDGGSSL [FBXO28]
protein stability index [1]: 5.45 ± 0.29
protein stability index [2]: 5.57 ± 0.33

MAAGNTVIAKPSELTSVTAWMLCK [ALDH8A1]
protein stability index [1]: 2.44 ± 0.1
protein stability index [2]: 2.35 ± 0.23

MASPPRCSPTAHDRECKLPPPSAP [WDR88]
protein stability index [1]: 4.67 ± 0.25
protein stability index [2]: 4.83 ± 0.24

MATYLRYVRRLDFFEKPDYDYLRK [CSNK1G3]
protein stability index [1]: 2.31 ± 0.42
protein stability index [2]: 2.32 ± 0.12

MCFGPKKVKPAEAETAGAIMAFFL [SLC29A1]
protein stability index [1]: 2.42 ± 0.45
protein stability index [2]: 2.13 ± 0.21

MDSFKVVLEGPAPWGFRLQGGKDF [PDLIM7]
protein stability index [1]: 2.1 ± 0.24
protein stability index [2]: 2.52 ± 0.23

MEHALREKAKAFWAMRRSYEAIAK [TRIM35]
protein stability index [1]: 2.46 ± 0.12
protein stability index [2]: 2.59 ± 0.45

MEKFREDEGFIKEEERPLPEKEYQ [KCNA1]
protein stability index [1]: 5.38 ± 0.32
protein stability index [2]: 5.53 ± 0.31

MERPLCSHLCSCLAMLALLSPLSL [LOXL2]
protein stability index [1]: 3.16 ± 0.19
protein stability index [2]: 3.46 ± 0.36

MHLKPYWKLQKKEHPPEVSRETQR [FBXO34]
protein stability index [1]: 3.58 ± 0.18
protein stability index [2]: 3.78 ± 0.33

MIPGFRDLTSEDQIVLLKSSAIEV [VDR]
protein stability index [1]: 2.33 ± 0.25
protein stability index [2]: 2.43 ± 0.18

MKIFREKIEDFREEMWTFRGKIHA [CCDC70]
protein stability index [1]: 2.07 ± 0.26
protein stability index [2]: 2.39 ± 0.43

MKSCKNLKGGLQEVAEQLELERIG [CNOT7]
protein stability index [1]: 4.39 ± 0.14
protein stability index [2]: 4.47 ± 0.18

MLIEELYAFMPARSQDPKKPSRV [CBY2]
protein stability index (treatment: DMSO, c terminus: native): 2.57 ± 0.46
protein stability index (treatment: MLN4924 1 uM, 8 h, c terminus: native): 2.55 ± 0.17

MLTLPFDESVVMPESQMCRKFSRE [NEUROD6]
protein stability index [1]: 3.65 ± 0.15
protein stability index [2]: 3.77 ± 0.15

MMCVAERTYKQRFLFAKLFSHITS [PHTF1]
protein stability index [1]: 1.79 ± 0.71
protein stability index [2]: 2.24 ± 0.47

MMHGLKPLSLVKRTDLKDLIIFDK [CEP70]
protein stability index [1]: 2.37 ± 0.12
protein stability index [2]: 2.92 ± 0.47

MNELQHDLDVVSDALAKVSRKPSI [TPH1]
protein stability index [1]: 4.27 ± 0.22
protein stability index [2]: 4.42 ± 0.32

MNHFTVNLNREEKIIREIDFYRED [TRIM55]
protein stability index [1]: 3.46 ± 0.4
protein stability index [2]: 3.61 ± 0.33

MNTNSKEVLSLGVQVPEAWEELLT [ZSCAN9]
protein stability index [1]: 3.08 ± 0.47
protein stability index [2]: 3.52 ± 0.34

MQALEIELQSQLSMKASLEGNLAE [KRT17]
protein stability index [1]: 3.59 ± 0.19
protein stability index [2]: 3.45 ± 0.42

MRKGNTMQQFLQKALEILRKDFSE [FAM50A]
protein stability index [1]: 3.09 ± 0.59
protein stability index [2]: 2.89 ± 0.46

MRSPQNLHSQEDDDSSSESGSGNG [NOL4L]
protein stability index [1]: 5.64 ± 0.21
protein stability index [2]: 5.51 ± 0.16

MSDSTWMSADPHLASSLSPSQDER [NOL4L]
protein stability index [1]: 5.31 ± 0.19
protein stability index [2]: 5.18 ± 0.28

MSGKSPVESSLNVKTKKNAPSATI [FBXO34]
protein stability index [1]: 4.5 ± 0.22
protein stability index [2]: 4.6 ± 0.12

MTGLALKHMFERSFTQGEGARPLS [MATN2]
protein stability index [1]: 2.69 ± 0.28
protein stability index [2]: 2.93 ± 0.42

MTMQFISHRFPEDHDPTIEDAYKI [RIT1]
protein stability index [1]: 3.24 ± 0.15
protein stability index [2]: 3.36 ± 0.22

MVHVARLLLLLLTFFLRTDAETPP [PTPRD]
protein stability index [1]: 2.91 ± 0.44
protein stability index [2]: 2.95 ± 0.44

MVKPLLHMLLNTTLNIKETDSKEL [ZBED1]
protein stability index [1]: 2.13 ± 0.58
protein stability index [2]: 2.24 ± 0.38

MVQVACGASHVLALSTERELFAWG [NEK8]
protein stability index [1]: 2.59 ± 1.1
protein stability index [2]: 2.32 ± 0.84

NAPNSLGVSALCAICGDRATGKHY [HNF4A]
protein stability index [1]: 2.84 ± 0.12
protein stability index [2]: 3.2 ± 0.15

NAYHIERLMSFRPICSANHKESKM [CRYBA1]
protein stability index [1]: 3.12 ± 0.16
protein stability index [2]: 3.29 ± 0.12

NCCLTLCNFSIPEELEFQYRRVNE [ZER1]
protein stability index [1]: 2.55 ± 0.33
protein stability index [2]: 2.55 ± 0.14

NCGLEEKIANLGSCNDSKLEFRSF [S100A14]
protein stability index [1]: 2.25 ± 0.68
protein stability index [2]: 2.82 ± 1.2

NDPEKNFLTTAIRPHGIFGPRDPQ [NSDHL]
protein stability index [1]: 4.24 ± 0.3
protein stability index [2]: 4.24 ± 0.29

NDVRQAARSAASYMLFDPKDSVMQ [P3H4]
protein stability index [1]: 3.97 ± 0.12
protein stability index [2]: 4.08 ± 0.39

NEARHNFGIVEIDGMLYILGGEDG [GAN]
protein stability index [1]: 2.63 ± 0.37
protein stability index [2]: 2.72 ± 0.4

NEQVLTTEHEKKQKLETDAMFRLE [YJU2B]
protein stability index [1]: 5.43 ± 0.15
protein stability index [2]: 5.43 ± 0.19

NFSIVPYEKKFDTFIPLEPLPQIP [SPATS1]
protein stability index [1]: 3.04 ± 0.33
protein stability index [2]: 2.97 ± 0.34

NFSKKIQQIHVVSQFKILVSLLEN [VPS39]
protein stability index [1]: 2.64 ± 0.39
protein stability index [2]: 2.81 ± 0.66

NIEDYFSHHLAVYNSPQFKKTMST [FBXO39]
protein stability index [1]: 2.75 ± 0.28
protein stability index [2]: 2.71 ± 0.12

NIMNKEAFMNQEITKAFHVRKANR [RHOBTB1]
protein stability index [1]: 3.35 ± 0.18
protein stability index [2]: 3.45 ± 0.34

NITINIVDDHTPWVKGSVPPPLDQ [CLPTM1]
protein stability index [1]: 2.83 ± 0.28
protein stability index [2]: 2.77 ± 0.34

NKVLVCPMKSAPVMLTLSDSKHVV [RBBP5]
protein stability index [1]: 2.57 ± 0.25
protein stability index [2]: 2.75 ± 0.19

NKYDNTCLMIAAYKGHTDVVRYLL [FEM1B]
protein stability index [1]: 2.44 ± 0.66
protein stability index [2]: 2.31 ± 0.29

NLETNEWRYVSSLPQPLAAHAGAV [KLHL14]
protein stability index [1]: 2.64 ± 0.36
protein stability index [2]: 2.87 ± 0.37

NPELIKPKKLLNPVKASRSHQELH [FAM107A]
protein stability index [1]: 4.21 ± 0.16
protein stability index [2]: 4.24 ± 0.26

NRDLRKASVTIQARAEQEEEFISN [CCDC6]
protein stability index [1]: 4.96 ± 0.26
protein stability index [2]: 5.05 ± 0.27

NRKSILSRHLNSQVKKTTTRWCHI [PHTF1]
protein stability index [1]: 2.57 ± 0.55
protein stability index [2]: 2.57 ± 0.39

NRLSELEVANKDLTERKYKGDSTI [SASS6]
protein stability index [1]: 4.71 ± 0.38
protein stability index [2]: 4.96 ± 0.38

NRLSIGLQSLDDTELRLLGRTHSA [RSAD1]
protein stability index [1]: 3.77 ± 0.22
protein stability index [2]: 3.79 ± 0.28

NSLEGGTDATAFWWGEWTKWTACS [ADAMTSL2]
protein stability index [2]: 3.25 ± 0.35

NSLRGVILDIHFLSQADFLVCTFS [FUT8]
protein stability index [1]: 2.72 ± 0.71
protein stability index [2]: 2.79 ± 0.49

NSNQATDIMETSGWKSMIQSHPHL [SPOPL]
protein stability index [1]: 3.34 ± 0.22
protein stability index [2]: 3.48 ± 0.21

NTLQTYIRCRHPPPGSHLLYAKMI [VDR]
protein stability index [1]: 2.21 ± 0.15
protein stability index [2]: 2.33 ± 0.25

NTTCQTENRLSVFFSVIFMTVGIL [PTGFR]
protein stability index [1]: 2.39 ± 0.53
protein stability index [2]: 2.64 ± 0.46

NYCLLFLIYTVMLAFRSGSDNLLV [SLC35F2]
protein stability index [1]: 3.04 ± 0.44
protein stability index [2]: 3.29 ± 0.79

NYSIPSNVTNLEGGPGRQTTSPNV [ESR2]
protein stability index [1]: 4.66 ± 0.36
protein stability index [2]: 4.68 ± 0.27

PAAMGPPGAPPGRDLASVPPELTA [DVL3]
protein stability index [1]: 4.88 ± 0.29
protein stability index [2]: 4.89 ± 0.075

PAGVGVVVEATHMCMVMRGVQKMN [GCH1]
protein stability index [1]: 2.41 ± 0.23
protein stability index [2]: 2.32 ± 0.34

PAMRNSPTFKSFEERVETTVTSLK [TPD52L1]
protein stability index [1]: 4.61 ± 0.13
protein stability index [2]: 4.42 ± 0.2

PAPALCCAPYDSRLLGSARPELGA [IRX6]
protein stability index [1]: 3.08 ± 0.19
protein stability index [2]: 3.1 ± 0.25

PASSRNRSPSGSLRSARGSRGGTR [RBMY1A1]
protein stability index [1]: 5.14 ± 0.37
protein stability index [2]: 5.25 ± 0.24

PAWYVAACRANVKSGAIMSALSDT [PPFIA4]
protein stability index [1]: 2.58 ± 0.26
protein stability index [2]: 2.25 ± 0.39

PAYGMSPSLSTITSTSSSITSSIP [DVL3]
protein stability index [1]: 3.82 ± 0.26
protein stability index [2]: 3.65 ± 0.27

PDDVDYATNPHVKPPYSYATLICM [FOXJ1]
protein stability index [1]: 2.22 ± 0.28
protein stability index [2]: 2.2 ± 0.28

PDTQLLKFQLNKYTGEIKISENLD [PCDHGA10]
protein stability index [1]: 3.43 ± 0.44
protein stability index [2]: 3.66 ± 0.17

PEGTENPLGVDESLFSYGLRESIA [SLA]
protein stability index [1]: 4.04 ± 1.1
protein stability index [2]: 4.19 ± 0.1

PEISRIIVDPTTGKRYCRGKVLGK [PLK2]
protein stability index [1]: 3.9 ± 0.22
protein stability index [2]: 4.04 ± 0.2

PEKQKRKPGLRRSPIKKVRKSLAL [MYBL2]
protein stability index [1]: 3.97 ± 0.2
protein stability index [2]: 3.83 ± 0.075

PFREILCKKLHIPLKAQNDLDISR [P2RY14]
protein stability index [1]: 2.39 ± 0.12
protein stability index [2]: 2.46 ± 0.29

PGFDSSVYSDLCEAAEAVRPEERK [ADAMTSL2]
protein stability index [1]: 5.42 ± 0.19
protein stability index [2]: 5.83 ± 0.18

PGKYFSAAEYHAQRLKAVIVIQTY [IQUB]
protein stability index [1]: 2.81 ± 0.32
protein stability index [2]: 2.5 ± 0.66

PGPGDDLCSDLEEAPEAELSQAPA [HES6]
protein stability index [1]: 5.44 ± 0.23
protein stability index [2]: 5.43 ± 0.35

PGPPGPTGVPGSPGHIGPPGPTGP [EMID1]
protein stability index [1]: 5.29 ± 0.11
protein stability index [2]: 5.13 ± 0.44

PGPTAPSPTSRPPWAVDPAFAERY [PDLIM7]
protein stability index [1]: 2.2 ± 0.43
protein stability index [2]: 3.02 ± 0.36

PGRSRMISQEEFARQLQLSDPQTV [LPCAT4]
protein stability index [1]: 4.44 ± 0.22
protein stability index [2]: 4.38 ± 0.12

PGSLGPWKITIYDQENFQGKRMEF [CRYBA1]
protein stability index [1]: 2.25 ± 0.33
protein stability index [2]: 2.18 ± 0.39

PGVAYPAFLGPDEAFALPDSLLVV [SPSB4]
protein stability index [1]: 2.76 ± 0.49
protein stability index [2]: 2.21 ± 0.13
